The values that follow come from the NTF2 design screens of Basanta et al. (2020).

A short description of the data set: protease stability score; higher = more stable; yeast display proteolysis, trypsin and chymotrypsin.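 Note: log10 excess protease needed over predicted unfolded state with 0 meaning unfolded.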
Sequence “DEKEEAHRALTAMHKMMTGDFKEVMKNADENVHVEIGDKEFHGREDLHDFAREIQERVDDFRVSSVTAKGDSAVLNVRQDYNGRNERVRLEVQVSNGKIKHVRFQTG” showed a protease stability score of -0.341.

“DEEKVSEAHEFMQDVQNGDEKSLNDLMDKNDEVNVGDKTVHGREDFTRQFQKRRKELRLNIQSVSATRHGDSVVVHVQAQRNHNGNPEESRYVVILSKHNGRIQNVDVKEDK”: the protease stability score came out at 0.919.

The sequence “DEKETKKVLERIVKIFENGNAEEAKKMGKEDVEVEYGDETKHGPDALYEFIEKMKKLGAKVEYKEVHVEGDKVTVRIQADYGGRRAEMHVTYQATGNRVDNVKLKYSKTAQEMIKHG” registered a protease stability score of 0.084.

The sequence “DSEAEDLLRRILDAIRTNNREELHRQIDPNAHFEIGDREFKGMTQWATEIVRQAKEIRVDQSFHSISIRNGKLSARVEQVNETNGKPHSRQFKLRMKWHDGQVKFLSMEDDG” yielded a protease stability score of 0.362.

Sequence “DEEDQKRVLQEIVRMIQSGDPSQAKRLADPNATAEVGDKTYHGREKLSKYAKDLHDRVDRVHIQHYTVEGNKARIRVEVSVNGRTRQFEVKVQYHNGHITRLKVDTS” gave a protease stability score of 0.05.

Sequence “DEKKLEELLRKLFEAAQKNNVDEMRKFLAPDVQYKYGDKRYEGEKVADTAVKVMREVGAEVRVKEEEVKGGEAEATFQYHKGDKTVETTARVRYEGDKVKEVEVKLSEEVKKILEQG” returned a protease stability score of 0.128.

With “DEEKQAHHLLRLLQEVLNNGDEDKARKLADPNVELSVGDKEVHGREKFTKYLYQISKRSDHANMSLTRIDTKPGRIVLVFTLRLNHNGNNTHKRMRAVASVRNGQVVVKHLVDQ”, the protease stability score was 0.728.

Sequence “DEDALRKFKEFLEIKREGDERRLLELFDENVKIVVGDTELEGMTEAARDITRKRKEMRVEQRYDRFHVQGEHIRARARFTVKFNGRPHTNENTFRVVLRNGHYKSYELKIDPDELRKLDS” returned a protease stability score of -0.083.

“DRQVVRDAQTIFRLEKHGNENDVRRMADPNVDVNIGDKEIRGREEFAKSMRRKRDEIRVSLEIKNWTTTGDKANIDAKMQEEHNGRPSEKRVHIIVTATNGRMKSAHYHNTK” came in with a protease stability score of -0.006.

Sequence “DEEAIDLANRFLEARKTGDPDKAREQADPNATFKYGDREVHGMDEMARQIEHEHKESRVNIDVDRVTDTGDTAKFDMSVRENHNGQPHTVKMDMVVKAHNGHIKHLSYTLNG” gave a protease stability score of -0.514.

As for “DHEANQIAREFVKAIRTNNPTRASQNMDPNVRVTVGDHVFHGREEVKTWIHRLNKEARIDIHINTIESQGDNAKVVFKYRVEVDGRPDSRNVIVDVHAHNGKMKEVVYRVDEDEQHELKK”, the protease stability score worked out at 0.368.

Take “DEEDKADQFLRDLRQALQHNDENRMKELADKDARLNVGDKSVQGREQVVEHLVEKAKQVDDIKINIHTIKVHDGRFKFRATFVFNHNGKEESDEIVLVAHESNGKLKLLEVKEG”: the protease stability score was determined as 1.14.

The sequence “DEEEVKKQLEKLVKMLVKGNKDEIKKFLDPDVEYKVVDEDFQGQQVAEHAYKKIKKVGARMEVKEVRVEGDTAKATYEFTAGGTTVRAEIEAEVHGGRVKHWQVDLDDTAKELIKKG” returned a protease stability score of 0.266.

Sequence “DEERVKQLAEKAFKAIQNNDQEKLEKMGKPNVQYEYVDKKYEGPEVVKVVIKVVQKIGAKLETQEQEVKGDTARATFQYKNGDKTMQTTAEVRYKGDKMEEFRMELSDEVKKVVHQG” had a protease stability score of -0.207.

As for “DEEEADSWMKILQTNDEKKARDNIDPNATAHVGEQRFDGAQDFVARFMQVLKSADHVRIHSVDHEGDKVRMDITFDINGQRARVVLNIQIKNGRVVHVSVEVRNEEVKKVFDKALK”, the protease stability score amounted to 0.16.

For “DEEEAKEMMEKWMKIVEKGDSDKAQKIYKPNVVWENVDKKTQGVKQVKEMVKRIKDQGMEFQVRRAEVEGNTVEVQYDVRIGNTTVTFKVQVKAEGGRIDEVRVELDETAVKQLKKG”, the protease stability score was 0.31.

With “DEDKVAHDMMKEIQSIFERGDRDTWRRMFDPNAEMHVGDKRIHGREHFSRWAQRSVERVDHHEMHVRSVSVDNGTITVSAVEVENVNGHEDKRRFVVRANLEGDKVQWKRRSEQ”, the protease stability score came to 0.096.

In turn, “DNEDAQQAIQMLKAELDGDEERAAQLMDPNARFNIGDKEIHGRETFQHWLREVKKHMHVKIDRLEIDVEGDKVDVRMEFVQNHNGKPHRAEATVEVRAENGHVKEVTVDVKG” came in with a protease stability score of 0.551.

In turn, “DDRDEAHKLHEDYDRVMQTGDDDRVREMVDPNAKLRIGDQDLRGREELAELMKRQRDRADHVRIELRSVKVDGNKITMKLNFHLDHNGRTENTDATYHYEKDNGQWELKHAKVS” gave a protease stability score of -0.052.

With “DEDTIRRQAKEFFKNFRDNDEDSLRTLMDENVEARYGDKTYHGRESVLTALATVLSQIDHLEVENLHVHNGRIEVVMKFVVNGREVRMNVIFHIRNGRIKKINIDPDEQRKLES”, the protease stability score is 1.49.

“DEQDQLKLAERVLKAVNDNNPQKFEELADENATVKVGDKTWHGRSHAQEMIKRFKERVDSLEIKHIDNRGNRARVHLVLEHNGRTTEMSIVVTVENGRAKAVVVHTK” returned a protease stability score of -0.133.

The sequence “DEQELAEELFRDLTEAMKKGDPEQRKDLADEDVHQQVGDKTYHGREDNMKAMEELKRNYDSISIKLTSLSVHNGKVRIVFKVDFEHNGKTSTRRVVAHAYLQGDKVKIKKISEQ” came in with a protease stability score of 0.749.

In turn, “EEEMVKHIKRVLENNDEERRAQLADKDAHARVGDRHVHGREELEKIVHHIKRRVDHLEVKDVKADGNTIEADVVMQVDGRTMQYNLTIILHNGTIKSVTIKVRNEEQKKLMEELFG” registered a protease stability score of 0.317.

As for “DESHARHLQRVFEKNDWQRLVELADEDVRIQIGNYDYHGRTAAQQMFEKLSKQIDHMEVKSMRVQGNKLQFDFEVNFNGKRNQAHFEMHFSNGRIKKIRFQFRDEEHEKDFDRHFS”, the protease stability score came out at 1.46.

Regarding “DTKERQNRAEEINKNFKEGNPHEYMSMLDKNASAQVGDKQVHGRERMSKRIEDIVRRADKLTIETFHVSGDKVEIVVQLIVNGTRVRMEVEIKFENGHAKHVEFNPEQDKQLKQ”, the protease stability score was 0.421.

In the case of “DDEKAKEMMKVWKSGDEEDLVRLADENVSVVVGDHRVRGREEFKKWLHRLSEQVDRWKVDSVHAHNGRIQIDAVYVVNGQEFRLTIHVTMRNGRIKTVRAQVTTEDDERKLKKVVS”, the protease stability score was determined as 0.63.

The sequence “DEKKVQEVAKDALKVDLQGDVEKMKKLGKPDVTFQLGDQEVHGPDDLKKYYDKVKRLGEEIHVKKVKVEGDKMQAHYELRVAGKQATVTVEVTVKDEKVEEARAEMTEKYKKALEEG” came in with a protease stability score of -0.154.

On to “EERVQKMLEDAMRTNDEVELIKSAPPNAKVVVGDKKIKGHEEAHRWAVRFKEQVDHTEIKHLDINGDKVSLDFSIVINGKKIRVVVKVTATNGKVREVHVQATSEDDQEQLKRDIK”, for which the protease stability score came out at 0.652.

Turning to “DDEALRVYQEVLEAWKHGDEDRLRQLLDPNVSIDVGDKDVHGREDYVTKMVRKARELSFHFEHVHVDHDGDKATIQMVYVIDQNGEPDRTANNVKVDVQNGKIKEIRVSSDR”, the protease stability score was 0.622.

The sequence “DEKKVKELVDTLFDVMRKGDAERFRRYLKPDVRFEFGDITMQGPDQMEKYYRQDQKYGNEMHIKHKEVHGDRAKVTYDVEIKGTRATVEAEVHVRDEKVDEAKAEFDEDYKKYFTKG” gave a protease stability score of -0.121.

In turn, “EEEVKRKMKEYFDVARHGDPDRLREYVDENARIHIGDKVIHGMSDAADHLAQHYKEIRFDYTRIDVKAEGDQVKVDIDVVVNHNGRPEQVHLHWEARFTNGRVKHMKVQRQK” gave a protease stability score of -0.108.

Take “DESELERAIEMLEQNDPEEARRQVDKNAHMQVGEKSWTGREDVQTALVKHNEHVDHVEVKSVTKRGDKAEVKARVEFNGHNLKANFIVEVHNGKIKHVRVEVTDEEQKKLMRELLQ”: the protease stability score was -0.363.

For the sequence “DEEEFKKHAEQVIRILEHGDPDQMKKNADPNAKIEVGDRTYHGHDRMREFVKRLRDRVDHMSVETWSAHNGRIHIHFRVDINGKDVRVVMQLTVDNGKIKRLRVKSG”, the protease stability score was found to be 0.914.

Consider “DDEVVKEVNNALKTNDFKSMVDLADKNARIRVGNKTYRGREEVERFQTILHQRADHVQFRKIHVEGDTAVVDMVVVVNGHKLKYTVKIRVHNGKITSLRMQFTDESDERVMSKVLG”, for which the protease stability score amounted to 0.8.

On to “DDHNARSALTIAFTAIRQGDEQKIRELMDKHVDVHVGDEVVHGRDQVATRLRKLKERVDHIQVKSMSVQGDTLDLNIIFRINGKDLEIKFDIRFRNGRVESMTVRVTDEKKYKDIHQ”, for which the protease stability score stood at 0.475.

Sequence “DEENRKVFEEILEAKKRGDPKQLERNVDPNVKIYYGDKDFHGRSQLSKELEKVRRELHLHLDFKRIEYHGDSVDVELKVNQQHNGKPDESDRVFHARLHNGRLEHVDARDRK” had a protease stability score of -0.019.

Consider “DDDATKVVKEFLSALKTNNPDRARELIDKDVRVRVGDKEIHGREQLITHIETDLKKIRIEIKHMHIDVTGEDIIIHQVFVDEHNGRPHTQTVVVFIEMNNGRVKNVRSETSS”, for which the protease stability score is 0.322.

Consider “EEEDLKQVRKFLDAERDNDEDRLRELVDPNARFKVGDKTYHGMEDYVREVVHRMRQMQFEVDSIDNTVEGDHVRMRIHRTYRHNGKPSTKVYVLKARLHNGKIKHMQQDDDK”, for which the protease stability score worked out at 0.152.

The sequence “DQRLWERFVKDLEENDEKSWQDLVDKDAKVEVGDTSYQGREHALTAIQKWVHQVDHVEIKSYRIHGDNVQIRMEVVINGRKMQVTVQAHLHNGKMKNIHMEATDRHVVEKLRELIS” came in with a protease stability score of 0.039.

Turning to “DEERNKEMKEVLETNDFKDLANQADENAKAQIGDKEYHGREEVRDAMKSLQERIDSVEVRDIHVQGDKFSIEAVMDVDGDKVDVVIEMRVHNGNIKFVRINARNESVKEKVEQVVS”, the protease stability score came out at 1.79.

For the sequence “DQQKEAEKFARDMRRALDTGDERDVANLFPPDAKLRYGDKSFHGMDDIFKWVVTVLRQADHIHFQVRSVRDQGDKADIEFELRYDVNGQDRSRIFHAEVRHNGDNVQVEMNVEK”, the protease stability score turned out to be 0.326.

“DKDALRVFERFLEAVETNDPKQVQEQADPNAHFDIGDRTYHGMDEIATKMFEEQEKIHLSVQIRDVKDHGDKAVIKAEFSSERNGKPHSKTVRIEVQAHNGQMVKLVMTDDQ”: the protease stability score was -0.309.

“DEKEDRKLLQQLAEMFQNGDVERVRKLGKDDVEAEYGDERQHGPDAMKKFVERVKKLGAKVEYKEVHVEGDTVTAKVQADYAGQTVEMHVTYQAQGRRMDRVKVKYDETAQKVIKHG”: the protease stability score came to 0.566.

Take “DEDEVEKIATTIKDVIQEGNFRQLEKLADPNAKVVIGDKTYRGRDAMRHAAQLLQQRADHITVQTVHVHGNKVEAHLRATVNGRDVHFVVKVTLENGRIKNMKIEYTDEDKFKEMVG”: the protease stability score was 1.31.

“DEEEADKVAKDFNRMLTKGDEHRASQLFDENATVVVGDKTVHGTESIKKIIHEIHRKADHIEIDSVKNRGNKVQVDLHQDINGTRERYVFHVSFHNGRIKYAEINQD” displayed a protease stability score of -0.322.

In turn, “DEELNHQVHSFIKNVRQGNPKEAVKQADPNVRVQVGNKVINGRENMEKWYREMKREMRIVIKVDRIRAHNGRAEATYKVEYDVNGKPYTNTNSMHVEAHNGRIVSIYEDFDETHLREVQS” came in with a protease stability score of -0.367.

As to “DEEAAKRAEEYLKALRSGNPDDLKKQIDPNASYQIGDKRVHGREQQATLAHNLQHNMRMEWELKDYRVQGNSVTLEIDVVIEHNGRPEKFKADVRVTFHNGKIQEMTVREDK”, the protease stability score was 0.051.
